Patent publication US20240199759A1 (CYTOVIA THERAPEUTICS, published 2024)
Numbering of substitutions follows the chain as printed.

Legend:
[1] = biological target: human GPC3 (form in the assay not stated) (human, UniProt P51654 25-559, limits assumed); test: method not stated
[2] = biological target: T1, Human NKp46 antigen (Acro Biosystems) expressed on HEK293 cells or CHO cells (human, UniProt O76036 22-255); test: ELISA on coated human NKp46 antigen, normalized binding curve
T1 construct: Bought
T1 sequence (O76036 22-255 limits assumed): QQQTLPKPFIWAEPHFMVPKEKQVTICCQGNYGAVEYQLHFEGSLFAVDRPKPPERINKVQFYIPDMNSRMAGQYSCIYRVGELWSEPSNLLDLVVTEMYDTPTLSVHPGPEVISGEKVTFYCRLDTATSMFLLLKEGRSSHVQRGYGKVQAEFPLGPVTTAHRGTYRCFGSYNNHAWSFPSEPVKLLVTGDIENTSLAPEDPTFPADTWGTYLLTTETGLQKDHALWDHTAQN

[3] = biological target: T2, human NKp46 (form in the assay not stated) (human, UniProt O76036 22-255, limits assumed); test: BIAcore
T2 sequence (O76036 22-255 limits assumed): as above

[4] = biological target: T2, human NKp46 (form in the assay not …); test: BIAcore; SE(KD) 2.20E-10

Sequence of human GPC3 (form in the assay not stated) (P51654 25-559 limits assumed): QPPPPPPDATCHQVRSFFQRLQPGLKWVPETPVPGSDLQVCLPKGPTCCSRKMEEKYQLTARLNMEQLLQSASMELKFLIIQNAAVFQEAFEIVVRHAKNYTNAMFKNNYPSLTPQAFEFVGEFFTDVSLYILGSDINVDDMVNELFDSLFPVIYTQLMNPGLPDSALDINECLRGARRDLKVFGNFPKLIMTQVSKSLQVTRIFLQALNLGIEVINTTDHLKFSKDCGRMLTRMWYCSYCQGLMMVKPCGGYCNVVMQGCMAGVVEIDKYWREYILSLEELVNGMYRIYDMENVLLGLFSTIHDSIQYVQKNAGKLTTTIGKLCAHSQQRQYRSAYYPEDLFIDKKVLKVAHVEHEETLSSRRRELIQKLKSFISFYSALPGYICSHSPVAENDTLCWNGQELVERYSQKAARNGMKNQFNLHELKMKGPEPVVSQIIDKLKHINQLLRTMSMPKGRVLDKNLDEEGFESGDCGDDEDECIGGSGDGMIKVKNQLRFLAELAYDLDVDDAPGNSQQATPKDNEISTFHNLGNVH

B1: NKE1 (GPC3/NKp46/wt_IgG1), FLEX-NK tetravalent NKp46 engager directed against GPC3 (bispecific antibody)
heavy: not shown
light 1: DIVMTQSPATLSLSPGERATLSCRASQSISDYLHWFQQKPHESPRLLIKYASQSISGIPARFSGSGSGSDFTLTISSLEPEDFAVYYCQNGHSFPLTFGPGTKVDIKRTVAAPAVFIFPPSDEQLKSGTASVVCLLKNFYPREAKVQWKVDNALQSGNSQESVTEQDSKDSTYSLSSTLTLSKADYEKHKVYACEVTHQGLSSPVTKSFNRGEC
light 2: not shown
notes: Tetravalent; also called wildtype NKE1; copies: 2 + 2 + 2
- fold higher affinity compared to human NKp46 [1]: ~50 fold

B2: humanized 09 anti-NKp46 antibody (antibody, IgG4, V domains shown)
VH: EVQLQQSGAEVKKPGSSVKVSCKTSGYTFTEYSMHWVRQAPGKSLEWFGGISPNSGGTSYNQKFKGRATLTVDKSSSTAYMELSSLRSEDTAVYYCARRDFHSSFDYWGQGTTVTVSS
VL: DIVMTQSPATLSLSPGERATLSCRASQSISDYLHWFQQKPHESPRLLIKYASQSISGIPARFSGSGSGSDFTLTISSLEPEDFAVYYCQNGHSFPLTFGPGTKVDIK
notes: Humanized with an IgG4 framework; ELISA used MAbs with humanized variable and mutated IgG4, kappa light chain detected; also called 09 antibody humanized
- Kd [2]: ~27 pM

B3: humanized 12 anti-NKp46 antibody (antibody, IgG4, V domains shown)
VH: B2 VH
VL: B2 VL with M4L
notes: Humanized with an IgG4 framework; ELISA used MAbs with humanized variable and mutated IgG4, kappa light chain detected; also called 12 antibody humanized
- Kd [2]: ~25 pM

B4: mouse anti-NKp46 monoclonal antibody 09 (antibody, V domains shown)
VH: EVQLQQSGPELVKPGTSVKISCKTSGYTFTEYSMHWVKQSHGKSLEWFGGISPNSGGTSYNQKFKGKATLTVDKSSSTAYMELRSLTSEDSAVYYCARRDFHSSFDYWGQGTTLTVSS
VL: DIVMTQSPATLSVTPGDRVSLSCRASQSISDYLHWFQQKSHESPRLLIKYASQSISGIPSRFSGSGSGSDFTLSINSVEPEDVGVYYCQNGHSFPLTFGPGTKLELK
notes: Mouse hybridoma antibody raised in NKp46-deficient mice against NKp46-Ig; also called 09 antibody; mAb 09
- kon [3]: 6.22e+07 M⁻¹ s⁻¹

B5: mouse anti-NKp46 monoclonal antibody 12 (antibody, V domains shown)
VH: B4 VH
VL: B4 VL with M4L, D17N, R18S
notes: Mouse hybridoma antibody; also called 12 antibody; mAb 12
- Kd [4]: 1670 pM
